From paper PMC9715571 (Cell Research, 2022)

T1: METTL14 (human, UniProt Q9HCE5 1-456)
T1 construct: METTL14, human; also called MTC core subunit; source: baculovirus-insect cell expression system, co-expressed, purified
T1 sequence (looked up): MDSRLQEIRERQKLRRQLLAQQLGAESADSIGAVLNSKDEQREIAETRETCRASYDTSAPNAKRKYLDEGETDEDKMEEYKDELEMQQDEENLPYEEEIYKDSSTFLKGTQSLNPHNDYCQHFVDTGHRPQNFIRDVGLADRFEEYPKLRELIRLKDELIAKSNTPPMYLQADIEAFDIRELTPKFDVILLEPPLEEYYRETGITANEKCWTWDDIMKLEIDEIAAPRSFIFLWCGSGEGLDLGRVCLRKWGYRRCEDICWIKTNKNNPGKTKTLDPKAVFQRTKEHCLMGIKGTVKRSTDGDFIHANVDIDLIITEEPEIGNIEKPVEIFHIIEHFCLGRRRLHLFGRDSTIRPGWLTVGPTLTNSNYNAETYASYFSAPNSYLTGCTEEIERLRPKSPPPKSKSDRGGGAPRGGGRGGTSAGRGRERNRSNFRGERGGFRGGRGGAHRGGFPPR

T2: VIRMA^381–1486 (human, UniProt Q69YN4 381-1486)
T2 construct: probably the baculovirus-insect cell system used for the other complexes
T2 sequence (looked up): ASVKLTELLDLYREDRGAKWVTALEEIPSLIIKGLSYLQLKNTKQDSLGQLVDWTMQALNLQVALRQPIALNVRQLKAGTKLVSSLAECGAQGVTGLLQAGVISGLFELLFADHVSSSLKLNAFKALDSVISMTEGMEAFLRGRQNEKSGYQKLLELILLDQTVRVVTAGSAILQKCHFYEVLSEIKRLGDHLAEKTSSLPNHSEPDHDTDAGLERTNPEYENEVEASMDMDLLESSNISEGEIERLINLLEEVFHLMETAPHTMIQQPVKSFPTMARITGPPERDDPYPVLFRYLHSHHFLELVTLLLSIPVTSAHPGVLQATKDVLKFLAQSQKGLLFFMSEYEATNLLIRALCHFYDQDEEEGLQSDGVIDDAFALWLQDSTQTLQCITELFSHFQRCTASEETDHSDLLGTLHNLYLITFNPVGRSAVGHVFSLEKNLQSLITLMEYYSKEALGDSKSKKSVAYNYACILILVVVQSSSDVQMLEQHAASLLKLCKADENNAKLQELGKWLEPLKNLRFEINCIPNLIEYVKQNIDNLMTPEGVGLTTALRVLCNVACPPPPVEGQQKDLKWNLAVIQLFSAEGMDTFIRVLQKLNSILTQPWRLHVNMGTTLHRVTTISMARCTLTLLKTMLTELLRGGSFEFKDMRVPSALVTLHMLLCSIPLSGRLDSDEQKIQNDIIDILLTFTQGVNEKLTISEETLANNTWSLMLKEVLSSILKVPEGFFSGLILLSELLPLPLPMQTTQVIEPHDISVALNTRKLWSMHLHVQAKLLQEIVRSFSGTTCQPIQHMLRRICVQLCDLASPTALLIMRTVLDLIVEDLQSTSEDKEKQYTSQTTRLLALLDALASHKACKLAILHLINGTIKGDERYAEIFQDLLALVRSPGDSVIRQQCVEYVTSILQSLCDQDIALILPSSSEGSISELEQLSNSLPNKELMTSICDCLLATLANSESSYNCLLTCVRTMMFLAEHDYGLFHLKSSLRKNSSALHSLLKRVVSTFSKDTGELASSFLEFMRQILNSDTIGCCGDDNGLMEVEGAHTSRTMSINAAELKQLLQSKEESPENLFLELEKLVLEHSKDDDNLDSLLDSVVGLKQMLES

B1: WTAP^1–273 (domain or fragment, human, UniProt Q15007 1-273, looked up)
chain: MTNEEPLPKKVRLSETDFKVMARDELILRWKQYEAYVQALEGKYTDLNSNDVTGLRESEEKLKQQQQESARRENILVMRLATKEQEMQECTTQIQYLKQVQQPSVAQLRSTMVDPAINLFFLKMKGELEQTKDKLEQAQNELSAWKFTPDSQTGKKLMAKCRMLIQENQELGRQLSQGRIAQLEAELALQKKYSEELKSSQDELNDFIIQLDEEVEGMQSTILVLQQQLKETRQQLAQYQQQQSQASAPSTSRTTASEPVEQSEATSKDCSRL
notes: probably the baculovirus-insect cell system used for the other complexes; also called WTAPA; WTAPB
B2: WTAP^130–241 (domain or fragment, human, UniProt Q15007 130-241, looked up)
chain: QTKDKLEQAQNELSAWKFTPDSQTGKKLMAKCRMLIQENQELGRQLSQGRIAQLEAELALQKKYSEELKSSQDELNDFIIQLDEEVEGMQSTILVLQQQLKETRQQLAQYQQ
notes: WTAP, human, residues 130-241; density assigned for residues 150-241; also called WTAP alone; WTAP^150–241 (assigned density); source: Escherichia coli expression system

Experiments:
METTL14 = molecular target: T1, METTL14; assay: SEC; gel filtration analysis of the purified, co-expressed METTL3–METTL14–WTAP 1-273–VIRMA 381-1486 complex; conditions: both partners purified
METTL3 = molecular target: T3, METTL3 (human, UniProt Q86U44 1-580); assay: cross-linking; in vitro CXMS of the quaternary M–M–W–V complex with BS3, FDR < 5%; conditions: both partners purified
T3 construct: METTL3, human; The same molecule is used for the co-purifications, the gel filtration and the cross-linking; also called MTC core subunit; source: baculovirus-insect cell expression system, co-expressed, purified
T3 sequence (Q86U44 whole entry): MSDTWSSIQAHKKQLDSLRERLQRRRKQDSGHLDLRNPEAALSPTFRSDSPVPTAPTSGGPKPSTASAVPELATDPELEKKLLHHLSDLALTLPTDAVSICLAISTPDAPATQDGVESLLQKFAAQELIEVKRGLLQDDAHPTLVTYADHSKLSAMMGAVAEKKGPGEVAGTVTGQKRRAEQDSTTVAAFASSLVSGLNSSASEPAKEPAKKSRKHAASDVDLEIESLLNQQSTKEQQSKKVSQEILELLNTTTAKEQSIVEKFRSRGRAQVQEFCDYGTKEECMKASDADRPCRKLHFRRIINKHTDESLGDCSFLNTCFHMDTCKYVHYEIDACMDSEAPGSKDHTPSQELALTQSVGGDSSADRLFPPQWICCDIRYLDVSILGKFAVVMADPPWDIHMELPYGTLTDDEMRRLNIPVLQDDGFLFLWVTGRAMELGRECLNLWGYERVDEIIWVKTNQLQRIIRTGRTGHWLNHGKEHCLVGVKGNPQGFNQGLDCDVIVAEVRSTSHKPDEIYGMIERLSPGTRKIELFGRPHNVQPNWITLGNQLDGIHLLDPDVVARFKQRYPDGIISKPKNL

[1] = molecular target: the molecule itself; assay: cryo-EM structure; METTL3–METTL14–WTAP 1-273–VIRMA 381-1486 complex, gradient fixation, 3.1 Å; only WTAP 171-237 and VIRMA 381-1292 seen
VIRMA^381–1486 = molecular target: T2, VIRMA^381–1486; assay: as above; conditions: both partners purified
[2] = molecular target: the molecule itself; assay: crystal structure; WTAP 130-241 alone, 2.40 Å

| Binder | binding result (METTL14) | binding result (METTL3) | stoichiometry N [1] | stoichiometry N (VIRMA^381–1486) | stoichiometry N [2] |
| --- | --- | --- | --- | --- | --- |
| B1 | binds | binds | 2 | 2 WTAP:VIRMA | – |
| B2 | – | – | – | – | 2 |
